Results on 4 molecules are retold here after patent US20240108766A1 (Bayer, published 2024).

The target of assay [1] is T1, human LRRC15 extracellular domain with C-terminal His tag (human, UniProt Q8TF66 22-538).
T1 construct: Recombinant, made in HEK293; the entry holds the extracellular domain and the His tag; SPR analyte; also called TPP-1545; hLRRC15 CT-His
T1 sequence: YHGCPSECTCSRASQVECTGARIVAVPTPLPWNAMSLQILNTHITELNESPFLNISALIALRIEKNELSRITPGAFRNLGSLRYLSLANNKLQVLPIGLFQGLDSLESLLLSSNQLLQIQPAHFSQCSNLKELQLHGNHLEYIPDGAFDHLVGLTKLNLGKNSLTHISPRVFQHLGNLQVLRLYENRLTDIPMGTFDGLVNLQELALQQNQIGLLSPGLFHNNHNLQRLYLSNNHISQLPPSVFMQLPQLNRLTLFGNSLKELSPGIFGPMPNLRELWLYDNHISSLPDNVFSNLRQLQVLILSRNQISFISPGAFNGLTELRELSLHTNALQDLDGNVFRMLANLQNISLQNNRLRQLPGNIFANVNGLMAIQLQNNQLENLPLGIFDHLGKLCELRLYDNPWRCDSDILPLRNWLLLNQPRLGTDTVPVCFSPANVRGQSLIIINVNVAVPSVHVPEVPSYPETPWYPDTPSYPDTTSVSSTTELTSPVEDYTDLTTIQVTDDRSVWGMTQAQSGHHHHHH
Put plainly: SPR Biacore T200, 25°C, antibody captured, LRRC15 analyte. On the procedure:
(§1) To assess the binding kinetics and affinity of anti-LRRC15 antibodies as well as their species cross-reactivity profile, binding assays were conducted using surface plasmon resonance (SPR). Binding assays were performed on a Biacore T200 instrument at 25° C. using assay buffer HBS EP+, 1 mg/ml BSA, 300 mM NaCl, 0.05% NaN3. Antibodies were captured via anti-human Fc IgGs covalently amine coupled to a CM5 sensor chip and human, mouse and cynomolgus LRRC15 were used as analytes in a concentration series from 1.56-200 nM in multi cycle kinetics mode. […] Obtained sensorgrams were fitted to a 1:1 Langmuir binding model to derive kinetic data.

The target of assay [2] is T2, cynomolgus (Macaca fascicularis) LRRC15 extracellular domain with C-terminal His tag (cynomolgus monkey (Macaca fascicularis), UniProt Q8TF66 22-538 (human entry)).
T2 construct: Recombinant, made in HEK293; the entry holds the extracellular domain and the His tag; SPR analyte; also called TPP-9046
T2 chain: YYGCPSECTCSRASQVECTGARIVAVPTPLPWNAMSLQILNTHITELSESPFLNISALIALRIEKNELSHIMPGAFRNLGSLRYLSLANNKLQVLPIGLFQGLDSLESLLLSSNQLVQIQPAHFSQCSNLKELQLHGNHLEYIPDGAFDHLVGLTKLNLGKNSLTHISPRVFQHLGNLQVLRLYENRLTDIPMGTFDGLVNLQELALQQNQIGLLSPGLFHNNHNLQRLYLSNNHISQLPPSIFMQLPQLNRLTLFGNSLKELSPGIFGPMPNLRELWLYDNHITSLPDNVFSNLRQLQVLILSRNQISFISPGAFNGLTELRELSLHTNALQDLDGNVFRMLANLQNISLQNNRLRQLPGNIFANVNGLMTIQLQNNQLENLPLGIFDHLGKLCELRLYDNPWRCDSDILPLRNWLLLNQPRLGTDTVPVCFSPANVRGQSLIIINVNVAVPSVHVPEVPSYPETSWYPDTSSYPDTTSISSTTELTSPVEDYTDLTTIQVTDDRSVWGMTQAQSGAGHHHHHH
The assay is described as above. As for the experimental part:
as §1

The target in assay [3] is T3, human LRRC15 expressed on cells (human, UniProt Q8TF66 22-581).
T3 construct: whole, on cells; On HEK293 cells transfected with LRRC15/ZsGreen1 (Retrogenix), on HT29 cells transfected with human LRRC15, and endogenous on Saos-2; also called LRRC15/ZsGreen1 transfected HEK293 cells; HT29-LRRC15
T3 sequence (looked up): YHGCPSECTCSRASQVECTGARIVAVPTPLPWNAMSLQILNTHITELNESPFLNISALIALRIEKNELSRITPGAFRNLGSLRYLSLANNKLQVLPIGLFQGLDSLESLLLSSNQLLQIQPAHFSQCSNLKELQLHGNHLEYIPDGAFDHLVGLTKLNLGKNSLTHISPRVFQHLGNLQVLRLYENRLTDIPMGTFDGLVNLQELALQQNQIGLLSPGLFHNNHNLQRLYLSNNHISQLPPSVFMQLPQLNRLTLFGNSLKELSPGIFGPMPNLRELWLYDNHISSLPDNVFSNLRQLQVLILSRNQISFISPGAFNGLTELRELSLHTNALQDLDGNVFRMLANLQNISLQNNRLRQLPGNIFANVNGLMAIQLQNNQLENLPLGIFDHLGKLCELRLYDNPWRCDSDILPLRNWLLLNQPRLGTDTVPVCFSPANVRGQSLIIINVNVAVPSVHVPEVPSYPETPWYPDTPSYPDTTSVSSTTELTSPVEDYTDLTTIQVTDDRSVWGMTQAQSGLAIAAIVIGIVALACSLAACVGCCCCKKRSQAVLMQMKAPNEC
As to the kind of experiment: flow cytometry, transfected HEK293, 62.5 µg/ml.

Assay [4] has as its target T1, human LRRC15 extracellular domain with …. As to the kind of experiment: SPR at 10-37°C (Example 3). On the procedure:
(§2) To assess if anti-LRRC-15 antibodies show a difference in binding at different temperatures, binding assays were conducted using surface plasmon resonance (SPR). Binding assays were performed on a Biacore T200 instrument at temperatures of 10° C., 20° C., 25° C. and 37° C. with assay buffer HBS EP+, 1 mg/ml BSA (bovine serum albumine), 300 mM NaCl, 0.05% NaN₃. Antibodies were captured via anti-human Fc IgGs covalently amine coupled to a CM5 sensor chip and human LRRC15 was used as an analyte in a concentration series from 1.56-200 nM in multi cycle kinetics mode. Pre-experiments were conducted to have an equal capture level at each temperature. Obtained sensorgrams were fitted to a 1:1 Langmuir binding model to derive kinetic data.

The target is the same in assay [5]. Put plainly: SPR Biacore T200, antibody captured, LRRC15 analyte, 37°C. On the procedure:
as §2

B1: TPP-12942 (antibody, human IgG1, kappa, V domains shown)
VH: EVQLVQSGAEVKKPGASVKVSCKASGYKFSSYWIEWVKQAPGQGLEWIGEILPGSDTTNYNEKFKDRATFTSDTSINTAYMELSRLRSDDTAVYYCARDRGNYRAWFGYWGQGTLVTVSS
VL: DIQMTQSPSSLSASVGDRVTITCRASQDISNYLNWYQQKPGGAVKFLIYYTSRLHSGVPSRFSGSGSGTDYTLTISSLQPEDFATYFCQQGEALPWTFGGGTKVEIKR
notes: Prior art humanized IgG1 kappa antibody, used as comparator; also called huM25; huM25-hIgG1Kappa
In the case of B1, the Kd came to 25 nM in assay [1], 36 nM in assay [2] and 72 nM in assay [5]. For the same molecule, the “Median Fluorescence AF647” value in assay [3] is 620000. Also, the “Temperature dependent loss in binding affinity” value (“Temperature dependent loss” below) in assay [4] worked out at 13.8 fold.

B2: TPP-17421 (antibody, human IgG1, kappa, V domains shown)
VH: EVQLVQSGAEVKKPGASVKVSCKASGYKFSSYWIEWVKQAPGQGLEWIGEILPGSDWTNYNEKFKDRATFTSDTSINTAYMELSRLRSDDTAVYYCARDRGNYRAWFQYWGQGTLVTVSS
VL: DIQMTQSPSSLSASVGDRVTITCRASQSISSYLNWYQQKPGGAPKFLIYYASSLQSGVPSRFSGSGSGTDYTLTISSLQPEDFATYYCQQGLELPWTFGGGTKVEIKR
notes: also called 438H-M306-C11-hIgG1Kappa
For B2, the Kd in assay [1] was 0.96 nM; in assay [2], 0.91 nM; in assay [5] it was 2.4 nM. In addition, in assay [3], the “Median Fluorescence AF647” value stood at 650000. Further, in assay [4], the “Temperature dependent loss” value worked out at 5.2 fold.

B3: TPP-17078 (antibody, human IgG1, kappa, V domains shown)
VH: EVQLVQSGAEVKKPGASVKVSCKASGYKFSSYWIEWVKQAPGQGLEWIGEILPGSDTTNYNEKFKDRATFTSDTSINTAYMELSRLRSDDTAVYYCARDRGNYRAWFGYWGQGTLVTVSS
VL: DIQMTQSPSSLSASVGDRVTITCRASQSISSYLNWYQQKPGGAPKFLIYYASSLQSGVPSRFSGSGSGTDYTLTISSLQPEDFATYYCQQGFSLPWTFGGGTKVEIKR
notes: also called 438H-M308-H05-hIgGkappa
B3: the Kd turned out to be 1.7 nM in assay [1], 1.8 nM in assay [2] and 9.9 nM in assay [5]. Besides, the “Median Fluorescence AF647” value in assay [3] is 621000. In addition, the “Temperature dependent loss” value in assay [4] was found to be 30.9 fold.

B4: TPP-14389 (antibody, human IgG1, kappa, V domains shown)
VH: EVQLLESGGGLVQPGGSLRLSCAASGFTFSGYMMSWVRQAPGKGLEWVSGIYPSPGYTYYADSVKGRFTISRDNSKNTLYLQMNSLRAEDTAVYYCAREKASDLFGSYSEALDYWGQGTLVTVSS
VL: DIQMTQSPDSLSASVGDRVTITCRASQDVGSWLAWYQQKPGKAPKLLIFAASSLESGIPSRFSGSGSGTDFTLTISSLQPEDFATYYCQQANGFPLTFGGGTKVEIKR
notes: also called 13612-rec02-hIgG1Kappa
Take B4: the Kd amounted to 5.9 nM in assay [1], 9 nM in assay [2] and 66 nM in assay [5]. Also, the “Temperature dependent loss” value in assay [4] is 108 fold.
